One data set has as its target c-Myc deltaN100:Max (Homo sapiens, UniProt P01106-1;P61244-2 P01106-1:101-439,P61244-2:1-151, c-Myc deletion of N-terminal 100 aa). Put plainly: EMSA. Particulars: label: 32P. (Mobility shift assays separate free from complexed probe on a gel.)
The target in data set [1] is GST-C92Myc:Max heterodimer (Homo sapiens, UniProt P01106;P61244-2 P01106:363-454,P61244-2:1-151). Put plainly: EMSA; heterodimer favored over Max:Max. Particulars: tags: GST on Myc; label: 32P.
Experimental: The ability of Mad-1 to bind DNA and interact with Max and Myc was examined by the electrophoretic mobility shift assay. […] Non-fusion GST protein was used as a control. […] As a control, the specificity of the electrophoretic mobility shift was assayed by including antibodies to either Max (αMax), GST (αGST), or Myc (αMyc) to the binding reaction. The activity of these antibodies was inhibited by adding the appropriate immunoglobulin to the binding reaction ("+block"). The lanes marked "–" had no additional protein present in the binding reaction.
The ability of Mad-1 to bind DNA and interact with Max and Myc was examined by the EMSA. […] In each experiment the specificity of the mobility shift was assayed by including antibodies to either Max((xMax), GST((xGST) or Myc ((xMyc) were added to the binding reaction.
In the next data set the target is c-Myc:Max heterodimer (Homo sapiens, UniProt P01106-1;P61244-2 P01106-1:1-439,P61244-2:1-151). Put plainly: EMSA; supershifted by anti-Myc and anti-Max; 3 mM MgCl2, 50 mM KCl, RT; 5-fold excess cold CM-1 competes. To be noted: label: 32P.
The next data set addresses Mad-1-His6 full length (Homo sapiens, UniProt Q05195 SEQ:1-221). In words: EMSA; no Max present. To be noted: tags: C-terminal His6 (pET11D); label: 32P.

Sequence of GST-C92Myc:Max heterodimer (P01106 363-454, chain 1 of 2): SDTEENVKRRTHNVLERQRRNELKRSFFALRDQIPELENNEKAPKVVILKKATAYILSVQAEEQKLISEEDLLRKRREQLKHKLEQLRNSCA
Sequence of GST-C92Myc:Max heterodimer (P61244 other isoform, or with tags, fused parts or gaps, chain 2 of 2): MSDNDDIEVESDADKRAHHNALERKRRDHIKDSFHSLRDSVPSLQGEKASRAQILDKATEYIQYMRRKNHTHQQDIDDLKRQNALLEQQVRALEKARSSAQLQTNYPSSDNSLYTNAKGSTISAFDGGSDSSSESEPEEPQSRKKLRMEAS
Sequence of c-Myc deltaN100:Max (P01106 116-454, stated change not applied, chain 1 of 2): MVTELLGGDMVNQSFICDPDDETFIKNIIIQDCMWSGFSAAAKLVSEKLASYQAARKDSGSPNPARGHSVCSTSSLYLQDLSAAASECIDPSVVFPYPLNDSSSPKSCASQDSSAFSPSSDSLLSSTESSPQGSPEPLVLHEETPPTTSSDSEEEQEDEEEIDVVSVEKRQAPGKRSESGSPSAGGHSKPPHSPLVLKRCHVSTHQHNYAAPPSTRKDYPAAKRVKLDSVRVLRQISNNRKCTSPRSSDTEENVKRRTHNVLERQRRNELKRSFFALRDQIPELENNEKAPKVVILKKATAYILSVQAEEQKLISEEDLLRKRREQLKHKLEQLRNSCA
Sequence of c-Myc deltaN100:Max (P61244 other isoform, or with tags, fused parts or gaps c-Myc deletion of N-terminal 100 aa | mutant, chain 2 of 2): as the sequence (P61244 other isoform, or with tags, fused parts or gaps, chain 2 of 2) above
Sequence of Mad-1-His6 full length (Q05195 whole entry): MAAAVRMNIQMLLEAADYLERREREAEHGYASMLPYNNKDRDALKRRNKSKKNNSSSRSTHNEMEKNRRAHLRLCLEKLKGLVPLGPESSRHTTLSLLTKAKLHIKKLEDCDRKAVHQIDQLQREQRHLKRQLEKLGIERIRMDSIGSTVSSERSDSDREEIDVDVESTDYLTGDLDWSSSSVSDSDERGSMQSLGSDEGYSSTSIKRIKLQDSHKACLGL
Sequence of c-Myc:Max heterodimer (P01106 16-454, chain 1 of 2): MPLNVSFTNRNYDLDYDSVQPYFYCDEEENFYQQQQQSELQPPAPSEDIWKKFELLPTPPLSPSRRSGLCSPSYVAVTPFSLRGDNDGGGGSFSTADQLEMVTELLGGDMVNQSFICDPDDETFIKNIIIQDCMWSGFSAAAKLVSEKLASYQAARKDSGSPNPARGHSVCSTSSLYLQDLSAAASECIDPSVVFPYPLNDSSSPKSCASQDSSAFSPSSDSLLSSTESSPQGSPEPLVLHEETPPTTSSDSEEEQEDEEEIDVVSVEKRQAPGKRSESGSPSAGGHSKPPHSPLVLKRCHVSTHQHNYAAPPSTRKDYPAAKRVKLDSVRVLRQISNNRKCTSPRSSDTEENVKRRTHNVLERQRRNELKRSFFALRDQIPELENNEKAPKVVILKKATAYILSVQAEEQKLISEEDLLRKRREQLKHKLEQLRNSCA
Sequence of c-Myc:Max heterodimer (P61244 other isoform, or with tags, fused parts or gaps, chain 2 of 2): as the sequence (P61244 other isoform, or with tags, fused parts or gaps, chain 2 of 2) above
Experimental for c-Myc deltaN100:Max: FIG. 7A: the ability of in vitro translated Myc and Max proteins to bind to the CM-1 oligonucleotide (CACGTG core consensus) was assessed by electrophoretic mobility shift assay. […] Lysates were incubated with ^32P-labeled CM-1 prior to resolution in a 5 percent acrylamide gel. In experiments where antibodies were added, affinity purified antibody (1 mg) was added after formation of the nucleoprotein complex to minimize steric interference. To block the antibody effect, cognate immunogen (1 mg) was added. […] CM-1 oligonucleotide alone (probe) and unprogrammed reticulocyte lysate (RL) served as background controls. FIG. 7B: The specificity of the Myc-Max shift was tested by competition with 5-, 50-, and 500-fold excess of unlabeled oligonucleotide. […] FIG. 7C: Requirements for the formation of a nucleoprotein complex. Various c-Myc mutants (see FIG. 4 discussion for abbreviations) were assayed for their ability to bind CM-1 in association with Max.
To ascertain whether the association of Myc and Max in a nucleoprotein complex required the same sequences, some of the c-Myc mutants were examined for their ability to bind to CM-1 in a complex with Max.
Experimental for c-Myc:Max heterodimer: The DNA-binding reaction was allowed to proceed at room temperature for 10 minutes.
FIG. 7A: the ability of in vitro translated Myc and Max proteins to bind to the CM-1 oligonucleotide (CACGTG core consensus) was assessed by electrophoretic mobility shift assay. […] Lysates were incubated with ^32P-labeled CM-1 prior to resolution in a 5 percent acrylamide gel. In experiments where antibodies were added, affinity purified antibody (1 mg) was added after formation of the nucleoprotein complex to minimize steric interference. To block the antibody effect, cognate immunogen (1 mg) was added.

B1: CM-1 (dsDNA)
DNA 1: CCCCCACCACGTGGTGCCTGA
DNA 2: TCAGGCACCACGTGGTGGGGG
For B1, the binding result with c-Myc deltaN100:Max is “binds”; in data set [1], “binds”; with c-Myc:Max heterodimer, “binds”; in the data set with Mad-1-His6 full length, “no binding”.
